{"source": "patent US20020076765A1", "about": "(IOWA STATE UNIVERSITY RESEARCH FOUNDATION, published 2002)", "binders": {"B1": {"name": "bovine tumor necrosis factor-alpha (TNF-alpha) (ligand, UniProt Q06599 78-234, looked up)", "chain": "LRSSSQASSNKPVAHVVADINSPGQLRWWDSYANALMANGVKLEDNQLVVPADGLYLIYSQVLFRGQGCPSTPLFLTHTISRIAVSYQTKVNILSAIKSPCHRETPEWAEAKPWYEPIYQGGVFQLEKGDRLSAEINLPDYLDYAESGQVYFGIIAL", "notes": "Not purified; The whey samples served as the source of bovine TNF-alpha; also called bovine TNF-α; bovine TNF"}, "B2": {"name": "soluble bovine tumor necrosis factor receptor-I (TNF-RI) (receptor)", "chain": "LVPHPGDLEKRESPCPQGKYNHPQNSTICCTKCHKGTYLYNDCPGPGRDTDCRVCAPGTYTALENHLRRCLSCSRCRDEMFQVEISPCVVDRDTVCGCRKNQYREYWGETGFRCLNCSLCPNGTVNIPCQERQDTICHCHMGFFLKGAKCISCHDCKNKECEKLCPTRPSTGKDSQDPGTT"}}, "key": {"[1]": {"target": "B2", "assay": "inferred from the TNF cytotoxicity inhibition assay on WEHI 164 cells; no direct binding assay"}, "[2]": {"target": "B1", "assay": "cell-based or functional assay"}}, "data": [{"binder": "B1", "values": [{"measurement": "binding result", "setting": "[1]", "result": "binds"}]}, {"binder": "B2", "values": [{"measurement": "fold potency at blocking bovine TNF-α, against MAb BC9", "setting": "[2]", "result": "> 2 fold (vs MAb BC9)"}]}]}
